According to patent US20140056907A1 (Regeneron, published 2014):

T1: human ASIC1 (human, UniProt P78348 1-528)
T1 construct: Ion channel subunit expressed on 3T3 (3T3/hASIC1) or HEK293 cells (HEK/hASIC1; HEK293 CL:1F10 transient); also called hASIC1; human ASIC1a
T1 sequence: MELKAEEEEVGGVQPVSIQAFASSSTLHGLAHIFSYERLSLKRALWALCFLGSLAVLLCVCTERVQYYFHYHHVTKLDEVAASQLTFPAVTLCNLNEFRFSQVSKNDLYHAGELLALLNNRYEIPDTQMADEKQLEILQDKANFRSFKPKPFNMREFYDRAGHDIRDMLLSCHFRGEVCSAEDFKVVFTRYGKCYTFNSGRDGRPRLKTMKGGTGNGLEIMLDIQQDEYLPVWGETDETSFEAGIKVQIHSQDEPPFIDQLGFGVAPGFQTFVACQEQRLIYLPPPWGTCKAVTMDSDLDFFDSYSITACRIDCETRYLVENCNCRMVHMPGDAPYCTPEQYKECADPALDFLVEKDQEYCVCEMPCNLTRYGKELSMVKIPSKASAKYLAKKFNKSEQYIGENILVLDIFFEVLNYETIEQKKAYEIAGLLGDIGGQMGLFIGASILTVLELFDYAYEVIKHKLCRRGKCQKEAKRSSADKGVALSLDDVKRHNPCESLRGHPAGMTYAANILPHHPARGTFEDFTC

T2: human ASIC1/ASIC3 channels (co-expressed human ASIC1a and human ASIC3) (human, UniProt Q9UHC3 1-531)
T2 construct: whole, on cells; 3T3 cells co-expressing both subunits; also called 3T3/hASIC1/3; 3T3-hASIC1/ASIC3
T2 sequence 1: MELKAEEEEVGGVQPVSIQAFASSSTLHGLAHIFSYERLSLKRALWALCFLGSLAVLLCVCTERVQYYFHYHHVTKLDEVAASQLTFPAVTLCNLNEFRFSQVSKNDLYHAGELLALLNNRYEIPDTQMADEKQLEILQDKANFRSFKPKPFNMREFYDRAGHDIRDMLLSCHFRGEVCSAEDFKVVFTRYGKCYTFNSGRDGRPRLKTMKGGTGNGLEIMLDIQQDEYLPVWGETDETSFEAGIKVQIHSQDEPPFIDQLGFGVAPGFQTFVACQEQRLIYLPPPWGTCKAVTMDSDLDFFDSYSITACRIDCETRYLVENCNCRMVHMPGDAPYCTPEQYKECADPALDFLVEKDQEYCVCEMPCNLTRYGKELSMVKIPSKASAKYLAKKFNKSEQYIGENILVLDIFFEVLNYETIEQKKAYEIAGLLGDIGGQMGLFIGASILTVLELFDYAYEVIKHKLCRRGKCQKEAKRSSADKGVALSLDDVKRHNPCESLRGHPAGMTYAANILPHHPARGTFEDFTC
T2 sequence 2: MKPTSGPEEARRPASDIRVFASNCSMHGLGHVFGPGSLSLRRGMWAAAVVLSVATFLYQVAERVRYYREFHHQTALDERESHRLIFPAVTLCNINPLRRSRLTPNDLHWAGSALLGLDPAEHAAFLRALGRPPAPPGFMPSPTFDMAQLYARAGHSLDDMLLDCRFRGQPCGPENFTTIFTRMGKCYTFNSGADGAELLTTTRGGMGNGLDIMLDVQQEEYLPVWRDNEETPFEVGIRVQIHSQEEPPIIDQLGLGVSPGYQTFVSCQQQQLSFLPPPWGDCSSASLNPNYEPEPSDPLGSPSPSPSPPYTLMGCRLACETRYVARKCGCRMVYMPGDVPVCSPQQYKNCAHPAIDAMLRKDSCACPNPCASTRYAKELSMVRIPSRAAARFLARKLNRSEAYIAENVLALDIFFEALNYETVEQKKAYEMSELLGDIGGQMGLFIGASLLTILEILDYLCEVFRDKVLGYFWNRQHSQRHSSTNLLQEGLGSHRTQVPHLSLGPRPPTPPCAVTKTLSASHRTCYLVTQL

T3: human ASIC3 (human, UniProt Q9UHC3 1-531)
T3 construct: whole, on cells; Expressed on 3T3 cells (3T3/hASIC3) or HEK293 cells (HEK/hASIC3-QCells); also called hASIC3
T3 sequence (looked up): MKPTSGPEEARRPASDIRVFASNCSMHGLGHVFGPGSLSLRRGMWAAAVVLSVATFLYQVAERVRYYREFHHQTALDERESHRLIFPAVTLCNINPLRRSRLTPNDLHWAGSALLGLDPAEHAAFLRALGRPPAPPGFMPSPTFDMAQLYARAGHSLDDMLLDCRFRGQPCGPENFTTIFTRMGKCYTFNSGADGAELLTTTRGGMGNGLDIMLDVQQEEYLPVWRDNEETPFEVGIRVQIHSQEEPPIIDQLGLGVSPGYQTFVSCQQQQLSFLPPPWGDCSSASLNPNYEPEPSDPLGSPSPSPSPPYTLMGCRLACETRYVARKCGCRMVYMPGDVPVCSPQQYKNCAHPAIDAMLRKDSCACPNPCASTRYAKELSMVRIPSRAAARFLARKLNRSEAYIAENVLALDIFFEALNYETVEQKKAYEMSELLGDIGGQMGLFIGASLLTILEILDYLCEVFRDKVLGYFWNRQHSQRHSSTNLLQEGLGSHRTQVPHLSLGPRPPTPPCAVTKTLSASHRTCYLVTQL


How the values were obtained:
human ASIC1 [1] = target: T1, human ASIC1; assay: FACS titration, 3T3/hASIC1 cells
Protocol: To perform the FACS binding experiments, adherent cells were collected using 1 mM EDTA in PBS, then washed, and re-suspended in cold PBS containing 5% FBS. For each binding experiment, each anti-ASIC1 antibody ([…] or ND7 cells) was added to 250,000 cells in 500 μL of PBS with 5% FBS. After incubation for 20 minutes at room temperature, a secondary antibody which recognizes human Fc (Cat. No. 109-136-098, Jackson ImmunoResearch Laboratories, Inc., West Grove, Pa.) or mouse Fc (Cat. No. 550826, BD Biosciences, San Jose, Calif.) and is conjugated to allophycocyanin, was then added to the cell mixture at a final concentration of 13.3 nM. After incubating for 20 minutes on ice, the cells were washed and resuspended in PBS containing 5% FBS, then sorted and analyzed on a flow cytometer (FACSCalibur, BD Biosciences, San Jose, Calif.) to determine relative binding by the candidate antibodies to the tested cell lines. Histograms of cells stained with anti-ASIC1 antibodies were compared with those of cells stained with secondary antibody alone. Percentage of ASIC1 signal over secondary antibody alone was calculated using FlowJo software (Tree Star, Ashland, Oreg.).

[2] = target: T2, human ASIC1/ASIC3 channels …; assay: FACS, 3T3/hASIC1/3 cells, 10 nM antibody
From the text: (§1) For these experiments, four cell lines were constructed: (a) a mouse fibroblast 3T3 cell line stably transfected to overexpress full length human ASIC3 (3T3/hASIC3; amino acids 1-531 of NCBI accession number NP_{—}004760.1), (b) a 3T3 cell line stably transfected to co-express full length human ASIC1a and human ASIC3 (3T3/hASIC1/3; amino acids 1-528 of NCBI accession number NP_{—}001086.2 and amino acids 1-531 of NCBI accession number NP_{—}004760.1), (c) […] a stably transfected 3T3 cell line expressing the full-length mouse ASIC3 channel (3T3/mASIC3; amino acids 1-530 of NCBI accession number NP_{—}892045.2), and (d) a 3T3 cell line stably transfected to co-express full length mouse ASIC1a and mouse ASIC3 (3T3/mASIC1/3; amino acids 1-526 of NCBI accession number NP_{—}033727 and amino acids 1-530 of NCBI accession number NP_{—}892045.2). Antibody binding was determined using flow cytometry (FACS).
(§2) To perform the FACS binding experiments, adherent cells were collected with cold Millipore Accutase 3-5 minutes, spun and resuspended in ice-cold FACS buffer (PBS, 2% HI-FBS and 0.09% Na-azide). Anti-ASIC1 antibody at final concentrations of 10 nM was added for 20-30 minutes on ice. Cells were washed with 900 μL ice-cold FACS buffer, spun, and resuspended in 100 μL ice-cold FACS buffer. A secondary antibody which recognizes human Fc (Jackson Immuno Research, #109-136-098) and is conjugated to allophycocyanin, was then added to the cell mixture at a final concentration of 2.5 ug/mL. After incubating for 20 minutes on ice, the cells were washed and resuspended in FACS buffer, then sorted and analyzed on a flow cytometer (FACSCanto II, BD Biosciences, San Jose, Calif.) to determine relative binding by the candidate antibodies to the tested cell lines. Histograms of cells stained with anti-ASIC1 antibodies were compared with those of cells stained with secondary antibody alone. Percentage of ASIC1 signal over secondary antibody alone was calculated using FlowJo software (Tree Star, Ashland, Oreg.).

human ASIC3 = target: T3, human ASIC3; assay: FACS, 3T3/hASIC3 cells, 10 nM antibody
From the text: as §1, §2

human ASIC1 [3] = target: T1, human ASIC1; assay: cell-based or functional assay
human ASIC1 [4] = target: T1, human ASIC1; assay: cell-based or functional assay; remark: listed apart in the source

| EC50 (human ASIC1 [1]) [nM] | binding result [2] | binding result (human ASIC3) | Current inhibition (%) at 100 nM antibody, Q-Patch, pH 6.0 (human ASIC1 [3]) [%] | FLIPR Dose Curve, pH 5.0 % Block (human ASIC1 [4]) [%] | FLIPR Dose Curve, pH 5.5 % Block (human ASIC1 [4]) [%] | FLIPR Dose Curve, pH 5.5 IC50 (human ASIC1 [4]) [nM] | Binder |
| --- | --- | --- | --- | --- | --- | --- | --- |
| 0.836 | binds | binds | 0 | – | – | – | H4H6363P (antibody, V domains shown) VH: EVQLLESGGGLVQPGGSLRLSCAASGFIFTNYAMTWLRQAPGKGLEWVSALSGSGGTTYYADSVKGRFTTSRDNSKNTLYLQMNSLRAEDTAVYYCAKDPHYYGSGNDYFYYYGLDVWGRGTTVTVSS VL: not shown |
| 0.023 | binds | binds | – | 25 | 37 | 1.1 | H1M6716N (antibody, mouse IgG1, V domains shown) VH: QVQLVQSGAEVKKPGASVKVSCKASGYTFTIYDINWVRQATGQGLEWMGWMNPRSGSTGYSQKFQGRVTMTRNTSINTAFMELSSLRSEDTAVYYCVRGQLVLGYWGQGTLVTVSS VL: not shown |
